Laboratory results reported in publication PMC5818060.

Columns and labels:
[1] = target: His-DDX3X^414-582 (human) (UniProt O00571); experiment: fluorescence thermal shift (FTS) assay; 10 µM His-DDX3X^414-582, 20 µM peptide, 50 mM HEPES pH 8, 10x SYPRO-Orange; change of melting temperature
[2] = target: His-DDX3X^414-582 (human) (UniProt O00571); experiment: fluorescence thermal shift (FTS) assay; FTS with varying concentrations of peptide; melting temperatures fitted to single site or simple cooperative ligand binding, preferred model chosen

His-DDX3X^414-582 (human), sequence (O00571 414-582): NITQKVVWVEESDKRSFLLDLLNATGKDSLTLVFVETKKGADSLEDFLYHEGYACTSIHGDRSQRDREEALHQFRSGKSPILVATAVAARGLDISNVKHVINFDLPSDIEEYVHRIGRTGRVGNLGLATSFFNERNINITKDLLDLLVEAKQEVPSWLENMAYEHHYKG

- increase of the melting temperature (Tm) of His-DDX3X^414-582 [1]: 5 °C
- Kd [2]: 5.49 µM
Substance: CK1δ-derived peptide δ-41 (from UniProt P48730 41-55)
